1 protein from PMC3239214 (Nucleic Acids Research, 2011) can be followed below.

This series deals with the molecule itself. Put plainly: SEC.

B1: GyrA_ΔCTD (domain or fragment, Bacillus subtilis, UniProt P05653 1-489, looked up)
chain: MSEQNTPQVREINISQEMRTSFLDYAMSVIVSRALPDVRDGLKPVHRRILYAMNDLGMTSDKPYKKSARIVGEVIGKYHPHGDSAVYESMVRMAQDFNYRYMLVDGHGNFGSVDGDSAAAMRYTEARMSKISMEILRDITKDTIDYQDNYDGSEREPVVMPSRFPNLLVNGAAGIAVGMATNIPPHQLGEIIDGVLAVSENPDITIPELMEVIPGPDFPTAGQILGRSGIRKAYESGRGSITIRAKAEIEQTSSGKERIIVTELPYQVNKAKLIEKIADLVRDKKIEGITDLRDESDRTGMRIVIEIRRDANANVILNNLYKQTALQTSFGINLLALVDGQPKVLTLKQCLEHYLDHQKVVIRRRTAYELRKAEARAHILEGLRVALDHLDAVISLIRNSQTAEIARTGLIEQFSLTEKQAQAILDMRLQRLTGLEREKIEEEYQSLVKLIAELKDILANEYKVLEIIREELTEIKERFNDERRTEIVT
For the protein B1, the “stoichiometry N” value turned out to be 2.

The stoichiometry N is a count of units in the complex or per binding partner.
